Data published in publication PMC4840364 (Scientific Reports, 2016).

B1: wild-type 5G6 Fab fragment (recombinant) (Fab, V domains shown)
VH: QVTLKESGPGILQPSQTLSLTCSFSGFSLSTSNMGVVWIRQPSGKGLEWLLHILWNDGKFYNPALKSRLTISKDTYNNQVFLKIANVDTADTATYYCARLFTTTTSGYFDVWGAGTTVTVSS
VL: DIQMTQSPASLSASVGETVTITCRASGNIYNYLAWYQQKQGKSPQLLVYNAKTLADGVPSRFSGSGSGTQYSLKINSLQPEDFGSYFCQHFWDTPWTFGGGTKLEIK
notes: heavy chain of 5G6 Fab, as the heavy chain of m1; light chain of 5G6 Fab, as the light chain of m1; cDNA of both chains cloned from 5G6 hybridoma mRNA into pcDNA3.1 with a C-terminal 6xHis tag; also called 5G6-WT; source: CHO cells, transiently cotransfected, purified from medium (Ni-NTA, Superdex 200)
B2: mutant 5G6 Fab 5G6-M2 (Fab, V domains shown)
VH: QVTLKESGPGILQPSQTLSLTCSFSGFSLSTSNMGVVWIRQPSGKGLEWLLHILWNDGKFYNPALKSRLTISKDTYNNQVFLKIANVDTADTATYYCARLFAAAASGYFDVWGAGTTVTVSS
VL: DIQMTQSPASLSASVGETVTITCRASGNIYNYLAWYQQKQGKSPQLLVYNAKTLADGVPSRFSGSGSGTQYSLKINSLQPEDFGSYFCQHFWATPWTFGGGTKLEIK
notes: as the heavy chain of m2 with Thr102-105 of CDRH3 replaced with Ala; as the light chain of m2 with Asp93 of CDRL3 replaced with Ala; five point mutations in the interface

Biological target: T1, glycoprotein Ibα (GPIbα) on human platelets (Homo sapiens, UniProt P07359)
T1 construct: human platelet glycoprotein Ibα, endogenous on platelets; On platelets GPIbα stands in the GPIb-IX complex with GPIbβ and GPIX; also called full length GPIbα expressed on the cell surface; source: endogenous, on human platelets
Experiment: flow cytometry on cells; human platelets (1.5 x 10^6 cells/well) incubated with Fab fragments at room temperature for 20 min, FITC-conjugated goat anti-mouse IgG, MFI of 10,000 cells
Conditions: one partner purified

Binder	binding result
B1	binds
B2	no binding
